Test results as given in the supplement of paper PMC12042874.
± gives the uncertainty stated by the source.

Assay: amyloid nucleation score (Sup35N fusion, yeast selection) (log enrichment); library NNK1; higher = more nucleation; inactive = no reads after selection
Outline: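 After 24 hours of induction with 100 μM copper sulfate, psi-negative yeast expressing peptides of 20 random codons fused to Sup35N were grown for 7 days at 30°C on medium lacking adenine and uracil. Input and output plasmid inserts were sequenced with Illumina, and sequences with under 100 input reads were discarded. Scores for nucleation are the DiMSum log enrichment of output over input reads, centred on the mode score of non-aggregating sequences.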

Substance	amyloid nucleation score
YELKSDNLFVRLF	-0.706 ± 0.46
TFYNFAMSFKEVCCCMSWRG	7.143 ± 0.058
INRFTICTFHWTGFALNALS	2.26 ± 0.17
QYNSGLDRMA	1.14 ± 0.62
MASTESNPIKLLKVHLKYTS	-0.97 ± 1.4
IAWFYRGPIKLLRLYIGGIW	-0.042 ± 0.73
CRIQFSSVRMDDSCAQGRKD	0.504 ± 0.67
IRKIS	-1.13 ± 1.7
NLSFLK	-0.313 ± 1.3
KVRIQGPTNVCVVRTMCGWF	5.98 ± 0.056
DCGDNRLTTEGQKSSSPVAD	0.378 ± 0.3
TMSSSNQSQMFPSVIYSEGH	-0.209 ± 0.9
KMTCCSGSINDGYLYCVYNV	6.56 ± 0.071
VPVVDNIVSIL	-0.718 ± 1.7
VVNITYFPMVSVRLICGNVP	6.569 ± 0.063
NGVPWG	-0.21 ± 0.95
SSCVTFSYMKSVFRFLPCWW	1.96 ± 0.092
NGINSVRKDLLFYNLQR	0.107 ± 1.1
IEYCIVSFQSMGE	0.326 ± 0.46
RGLTYVRVVGLARIGSACSV	0.335 ± 0.53
FYRFLQPMS	-0.809 ± 0.88
MAVSNLSDLRLMSMRHFS	-0.794 ± 0.95
PNLMLAFVL	1.14 ± 0.41
YLRDVRLYCVMRK	-0.129 ± 0.38
LHRIVTVNIP	1.23 ± 0.8

Substance	amyloid nucleation score
ASRSSIPSG	-0.038 ± 1
LCDGFILLSNVLLGPMIYDW	0.561 ± 0.27
FEHWCFRLPCVKDESCWD	0.821 ± 0.8
DDMVDVPFTMVGMWPYDSY	-0.381 ± 0.3
TGRMGLTNRSEEFLSFLADS	-1.45 ± 0.89
ISISLRHECRYKMFEQ	2.22 ± 0.19
YLCLAECSLSPYNTTLVGGV	-1.6 ± 0.81
AYINLTPHGPRVCRFNWLAS	-0.094 ± 0.7
YNVSQLVLLNVFTCK	7.459 ± 0.044
TQVWKPLHKTSLHYSDREVS	-0.111 ± 0.38
REWIYLVVETPCYFVDDVMD	-0.71 ± 0.52
NGRENWSDETGSMFECALYS	1.28 ± 0.44
KLETYYGAFNFNWFLSLNGD	5.08 ± 0.061
IGACFWRFIFVKLSTNL	-0.406 ± 0.36
FLGGDTRIDHGTLWWSLIRQ	0.032 ± 0.35
RSRIYCGFNRPTCEGFSRLS	2.63 ± 0.11
VATPISLGFPPWTSNVHAHT	inactive
RNFWF	0.078 ± 0.34
FRRYLWFRDRPGFCCFRLMQ	-0.46 ± 1.5
MLKMTVYFHIMID	-0.065 ± 1.1
NGLWVGHLVLDGIYSA	-0.564 ± 0.33
NSMNLNG	inactive
SEGCCYRKGCVTTRDSALSG	inactive
YPGRLRCSRVMSEFVLNSAL	-1.27 ± 0.68
FCTHHWG	-0.382 ± 0.6

Substance	amyloid nucleation score
NHGCQIFRG	0.667 ± 0.64
LQTSRHFSLRWWCMYSWGNS	1.41 ± 0.51
LSSTLCSIVF	0.051 ± 0.57
LNNTVEDPA	0.892 ± 0.92
SDEGN	1.55 ± 0.53
TVSVANSKWSDTVINMRLDR	5.72 ± 0.065
CVTAAEM	0.762 ± 0.41
RGAASKDLLMV	0.082 ± 0.86
VLGTLSMFYFRAYFRPAWLS	-0.278 ± 0.5
GERDACYPKSLD	-1.06 ± 2.4
AYSLLMDYGFNHLFIRRFSR	-0.067 ± 0.42
LLEALQNLGRLLITTPLVV	0.475 ± 0.84
TLFLKDLSLLAFEFPLNISA	-0.507 ± 0.37
TVNGLPN	0.885 ± 0.92
YRAAQGHLASELYGLVTV	0.36 ± 0.69
YIYYSNFCPDRLIVFINAMT	inactive
YTSGLFGF	-0.531 ± 0.37
DMMAIGSTTVCLVLRFFGKM	-0.929 ± 2.7
VRNVISNKYCRAGYLTKYLL	-0.16 ± 0.22
RHIFIRGIVYCCVSTFRFPS	-0.218 ± 0.27
KWNFVHMDQKGKELNSLFSL	-0.649 ± 0.54
CWCMFCTASL	7.637 ± 0.064
RNYPTRPYRGVINHLGFCRV	-1.06 ± 0.57
IQWGEKNGCGHLGQFMWYDG	0.193 ± 0.58
WVGFRQCLSASMCAPDPQTD	0.748 ± 0.8

Substance	amyloid nucleation score
IWLFFFPMSLRFASYWTGLL	-1.1 ± 0.81
KRPSMM	-0.18 ± 0.3
YWLLLSSENRECVLVTRRHR	-0.585 ± 1.7
HYYVLCFRVHLGQ	0.176 ± 1.1
EDLRLGSSYYEMANEASYGT	1.82 ± 0.11
TSVVVRSPRGVVEPKHYFCI	-1.19 ± 2.4
YSVMYMQSFFDKWLSTSAFR	-1.17 ± 1.4
DVFYVILNVSLVCSVPFLSA	-0.179 ± 0.72
SNVVNGLDTYSQPGKGWCVR	0.581 ± 0.37
SRCNHICHNYISMFLINCEL	5.71 ± 0.061
INVMWRYSFWLEFQT	-0.442 ± 0.4
THLVAPRSWLFIGPCRTKAS	0.385 ± 0.89
QNPWNGILLAKNWRDKMLRN	0.3 ± 0.52
LMFAISKIKIF	inactive
RDSRDLMCFVRLPLDRISK	-0.101 ± 0.39
WPLRESCGICERRAWCRSAY	0.923 ± 0.63
PRRSY	1.41 ± 0.84
FMGFISACQRMIIIMYVFRT	-0.126 ± 0.28
FRNTERGEFNVVYGSPGFSR	0.751 ± 0.51
GSSKNFH	0.972 ± 0.43
LHFVERLSLRPMGVVGFSRK	-0.178 ± 0.7
NLLTWRD	0.743 ± 0.64
PLFLYRFCKMVPVCILRIGW	0.415 ± 0.3
EHTSGVDFIVNNLSECFTLR	inactive
KQYPI	-1.33 ± 2.4

Substance	amyloid nucleation score
HRKTSPISENQVY	-0.59 ± 0.27
LYQCRNDCCYDWMLWYTWRS	0.505 ± 0.34
RNIPGFVETVINGSCGALLT	0.636 ± 0.52
PWLKVQFVKREVTIDFRVRV	inactive
YIFSHDKGMRR	2.49 ± 0.25
DYIIPMLSI	0.515 ± 0.9
NVWSKWCERGNSDPIVPQAA	-0.458 ± 0.35
RVYILFRHLVYSGGKFSVFI	inactive
IDHNLSGLVC	0.544 ± 0.97
MRRCTGMLCYTIS	0.97 ± 0.53
MRPVGTRFSSIP	-0.201 ± 0.55
VSFRFLMGFVYVKCWSSSLD	1.38 ± 0.69
FYEIY	0.021 ± 0.93
EHSSVCLESSQYVRMVVIKQ	0.531 ± 0.66
KCHLFKHLL	1.66 ± 0.6
NNVRYT	inactive
SFFFKFYSDSFGNSTFQTID	-0.046 ± 0.31
HPHVMLGILGHN	0.752 ± 0.85
CVLCKQRFTILMQRWLVRK	0.961 ± 0.61
IVEDSLRFIANPYTILNR	0.723 ± 0.55
NVGVRLMCVSWSVHDQLA	1.66 ± 0.35
KKNIWPLYSLRVRLYELAIS	-0.965 ± 1.7
HCLSNCSSRVGGFSFNAPVA	0.5 ± 0.45
SYSIYALGSRLIVEYSYKWI	0.625 ± 0.39
LFSWFWNEI	0.658 ± 0.72

Substance	amyloid nucleation score
ISSRRCVRED	inactive
SFSHVYFYGVPYGQVPYRSV	1.5 ± 0.28
GIPCT	0.38 ± 0.72
ASGVWRQ	-0.47 ± 0.65
FRVGYFAHSCRYVRSGRHMV	0.401 ± 0.26
STFGPCEVLVVQVDGPAYHT	-0.37 ± 0.55
SLMDKMPTIVLELVYHAVQI	0.018 ± 0.49
RVSKFPKSFNVSFKADNKIH	4.02 ± 0.06
FLDYKTSSGHRLYLDRAKES	-0.492 ± 0.36
RNRNCFSRYCRLIV	-1.45 ± 0.56
CAIFFTASLCVCRLSAACEQ	1.75 ± 0.43
NVYAMCTITMNYSVVVTHSC	3.35 ± 0.15
MALLARFRGAFLVCSGFIAC	-1.56 ± 2.4
HQTCCLWSTVVLGV	3.04 ± 0.15
ELMCNTQSLSAETCFGKKSY	0.97 ± 0.63
SSWYVITATFIKDCGMTARR	4.03 ± 0.082
MFCKAVSKERWMV	-0.269 ± 0.92
KEKWRMQICAPGKS	-1.24 ± 0.81
DRPTFKLVFTMKLVSLVTSL	inactive
INTCCIRCFRQYGNFNKIKT	0.662 ± 1.1
FLYVLDSVSCQ	0.648 ± 0.69
GFYFSYSWVRRSRNSKSMAS	0.418 ± 1
CAVLLGSIVHMLFAYE	0.132 ± 0.61
SIANVSFW	1.59 ± 0.18
IVVGRC	0.144 ± 0.39

Substance	amyloid nucleation score
EYSADTIGVIGLGTAPDERR	-0.239 ± 0.84
FMELEELCSCNERGLLWTPA	1.6 ± 0.27
LFLGMSNGLFLRMISRGCKW	-0.243 ± 0.33
NTAFSERTWLVRFKMVPRWK	0.647 ± 0.83
DLEGMPELARDVGAKI	-0.825 ± 0.98
SFKYWNIRHKYFRTSLT	-0.152 ± 0.4
YQQPEDCMFECTVVYSSKSR	-0.062 ± 0.26
VTYKEQNGLLLFAPDSVQRD	inactive
SYRFFRGMMYLSHVIDLQSR	-0.307 ± 1.1
FESTNVLPISGTSAGSV	1.18 ± 0.74
NCSDQALDLQGSMSVQKIFR	-0.533 ± 0.88
CSYPVECSGSMYVSEKTSIF	inactive
CHGCIGTNSEGLCTLYEDYT	-0.594 ± 0.26
VLCPW	-0.283 ± 0.44
GIAVGS	0.413 ± 0.49
LSCWLYNPGYCVSVEFC	6.906 ± 0.056
NNVRVDKACGEAMEDEKRVV	0.672 ± 0.37
DFYLWPGMFSKYLGLNATLS	-0.604 ± 0.57
ININGNVY	0.849 ± 1.1
CVCYRTDRVARTGCNEPSMQ	0.177 ± 0.59
VRHCTQINSPFYYDFN	-0.318 ± 0.3
SLNRWGVFLCEVALRLADGR	0.542 ± 0.85
KYTYGRHTQLVLDSIHSWLN	0.235 ± 0.75
AKVYSGIPWWNFSTFLRGEV	-0.668 ± 1.4
